Measured values published in the Human Domainome abundance scans (Beltran et al. 2025).

B1: Zinc finger MYM-type protein 3, residues 405 to 444; numbered along this chain, Q14202 (parent)
chain: DATRCSICQKTGEVLHEVSNGSVVHRLCSDSCFSKFRANK

Variants of: B1
Assay: abundance fitness (aPCA) (normalised: wild type 0, dead -1); higher = more abundant; growth selection in yeast, the domain comes from the species named
Details: Homo sapiens

Abundance fitness of substitutions, site by site:
H16: F -0.208 | N -0.252 | D -0.379 | Y -0.466 | I -0.701 | S -0.319 | M -0.551 | G -0.306 | L -0.645 | P -0.605 | R -0.121 | E -0.033 | K -0.158 | Q -0.053 | T -0.352 | V -0.492 | C -1.09
V18: W -0.228 | M -0.266 | E -0.15 | I -0.067 | P -0.258 | Q -0.243 | K -0.267 | H -0.209 | R -0.334 | C -0.201 | F -0.095 | L -0.157 | N -0.358 | A -0.183 | G -0.42
S6: Q -0.285 | V -0.469 | W -0.182 | L -0.312 | M -0.365 | N -0.218 | E -0.103 | A 0.104 | I -0.021 | F -0.012 | R -0.228 | G -0.252 | Y 0.052 | P -0.009 | D -0.302
T3: Q 0.205 | L -0.061 | N 0.025 | P -0.561 | W -0.085 | S -0.06 | V -0.388 | Y -0.025 | M 0.426 | R -0.047
C5: D -0.79 | L -0.835 | S -0.922 | W -1.06 | P -1.02 | G -0.914 | Q -1.05 | F -0.776 | A -1.29 | T -0.836 | Y -0.97 | V -0.999
G12: E -0.083 | N -0.511 | D -0.311 | F -0.414 | R -0.165 | M -0.089 | S -0.115 | H -0.215 | V -0.137 | I -0.21 | L -0.245 | Q -0.228 | W -0.639 | T -0.092 | P -0.639
V14: I -0.029 | Q -0.142 | A -0.173 | W -0.561 | G -0.08 | R -0.374 | N -0.087 | S -0.185 | T -0.033 | Y -0.461 | D -0.228 | L -0.344 | K -0.43 | C -0.453 | P -0.057 | F -0.068 | H -0.667 | E -0.453 | M -0.029
L15: R 0.07 | N -0.038 | Y -0.142 | H 0.017 | T -0.141 | V -0.034 | I 0.001 | K 0.079 | F -0.092 | E -0.227 | G -0.153 | P -0.033 | S 0.047 | Q 0.102
T11: V -0.452 | W -0.627 | S -0.315 | F -0.221 | D -0.104 | G -0.127 | A -0.27 | C -0.519 | P -0.499 | Q -0.157 | L -0.116 | H 0.088 | K -0.354 | R -0.287 | N -0.14 | I -0.203
I7: Y 0.079 | F -0.13 | D -0.376 | P -0.804 | W -0.218 | L -0.146 | V -0.037 | N 0.209 | A -0.325 | M -0.194 | S -0.269 | E -0.332 | C -0.463 | T -0.218 | K -0.508 | G -0.12 | H -0.267 | R -0.25
K10: R -0.098 | P -0.877 | F -0.595 | V -0.649 | I -0.417 | S -0.231 | L -0.273 | M -0.232 | Q -0.208 | D -0.49 | Y -0.436 | N -0.559 | C -0.367 | A -0.293 | W -0.479 | T -0.277 | E -0.088 | G -0.09
E17: G -0.594 | C -0.358 | P -0.697 | I -0.458 | D -0.251 | N -0.291 | V -0.487 | H -0.285 | M -0.395 | W -0.959 | Y -1.02 | L -0.764 | A -0.759 | S -0.192 | K -0.073 | T -0.089 | R -0.44 | F -0.606
N20: V -0.296 | G -0.21 | Q -0.004 | D 0.153 | M -0.001 | W -0.415 | F -0.431 | E 0.055 | R -0.135 | S -0.069 | K -0.138 | I 0.047 | H -0.033 | P -0.559 | C -0.517 | A -0.068
S19: F -0.101 | L -0.233 | M -0.12 | Y -0.383 | K 0.176 | D -0.078 | T -0.009 | G -0.1 | N 0.052 | I -0.11 | R -0.078 | V -0.135 | A -0.215 | H -0.268 | Q 0.059 | P 0.023 | E 0.066
C8: I -0.978 | Q -0.993 | E -0.85 | T -0.61 | G -0.86 | V -1.11 | P -0.912 | R -0.787 | K -0.999 | L -0.843 | S -0.927 | W -1.19 | Y -0.774 | N -0.779 | F -0.754 | M -1.21 | D -0.895
E13: P -0.236 | H -0.204 | N -0.216 | I -0.448 | D -0.2 | G -0.271 | Q -0.052 | S -0.201 | L -0.391 | C -0.855 | V -0.298 | K -0.049 | T -0.111 | R -0.19 | F 0.036 | M -0.074 | W -0.696
S22: N 0.029 | P -0.039 | W -0.419 | I -0.153 | M 0.021 | Y -0.303 | V -0.571 | T 0.018 | L -0.208 | A -0.109 | H -0.055 | R -0.136 | D -0.432 | E 0.006 | Q -0.001 | C -0.56
Q9: P -0.606 | H -0.194 | G -0.16 | M -0.123 | K -0.05 | L -0.22 | D -0.293 | F -0.087 | V -0.803 | S -0.129 | E 0.023 | A -0.585 | W -0.234 | T -0.195 | Y -0.014 | R -0.288 | C -0.215
R4: T -0.125 | L -0.32 | Y 0.079 | H -0.039 | I 0.211 | G -0.219 | V -0.193 | A -0.2 | N 0.122 | W -0.563 | E -0.211 | M 0.047 | S -0.35 | C -0.012 | D 0 | P -0.335 | F 0.147
G21: E 0.008 | Y -0.389 | K -0.214 | W -0.701 | P -0.392 | L -0.298 | V -0.611 | F -0.366 | H -0.235 | C -0.335 | S -0.193 | M -0.243 | Q 0.043 | R -0.354 | N -0.646 | D 0.016
V23: Q 0.181 | M 0.13 | A -0.085 | L -0.317 | C -0.937 | G 0.018 | E 0.103 | P -0.374 | F -0.01 | N 0.14 | D 0.079 | I -0.087 | K 0.114 | H 0.092
